Laboratory results taken from PMC8373988, “Structures of a deAMPylation complex rationalise the switch between antagonistic catalytic activities of FICD” (Nature Communications, 2021).

How the values were obtained:
[1] = target: T1, biotinylated-AviTag-haBiP^T229A-V461F (residues 27–635), unmodified (Chinese hamster, UniProt G3I8R9 27-635, T229A | V461F, biotin on the N-terminal Avi-tag); test: BLI; biotinylated BiP or BiP-AMP immobilised on streptavidin biosensors, activated in 2 mM ATP for 200 s; apo FICD analytes at 50 nM unless otherwise specified; HKM with 0.05% Triton X-100, 30 °C; second dissociation step with 2 mM ATP; details: both partners purified
T1 construct: Chinese hamster BiP residues 27–635; identical to human BiP over this range; A GS linker stands between the Avi-tag and BiP residue 27; also called unmodified BiP; BiP:ATP; source: E. coli, purified; biotinylated in vitro with GST-BirA, made nucleotide-free, MonoQ; not shown: His6-Smt3, N-terminal, cleaved; Avi-tag (biotinylated), N-terminal, kept
T1 sequence (G3I8R9 27-635 T229A/V461F): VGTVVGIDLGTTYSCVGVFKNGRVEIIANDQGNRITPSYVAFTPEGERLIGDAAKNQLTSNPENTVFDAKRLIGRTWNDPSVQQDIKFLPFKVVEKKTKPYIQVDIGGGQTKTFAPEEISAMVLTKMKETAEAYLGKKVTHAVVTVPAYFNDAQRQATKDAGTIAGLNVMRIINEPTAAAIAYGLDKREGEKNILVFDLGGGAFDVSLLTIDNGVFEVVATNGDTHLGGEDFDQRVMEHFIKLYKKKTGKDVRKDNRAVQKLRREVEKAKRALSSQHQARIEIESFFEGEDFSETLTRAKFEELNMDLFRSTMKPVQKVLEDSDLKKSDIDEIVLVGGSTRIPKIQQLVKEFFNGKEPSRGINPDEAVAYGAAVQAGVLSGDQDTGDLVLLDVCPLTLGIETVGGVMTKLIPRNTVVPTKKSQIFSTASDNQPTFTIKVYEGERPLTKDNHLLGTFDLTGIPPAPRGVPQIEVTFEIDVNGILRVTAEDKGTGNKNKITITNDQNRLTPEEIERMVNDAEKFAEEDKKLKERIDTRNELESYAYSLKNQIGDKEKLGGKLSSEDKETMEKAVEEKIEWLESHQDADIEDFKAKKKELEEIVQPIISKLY

[2] = target: T2, AMPylated biotinylated-AviTag-haBiP^T229A-V461F (residues 27–635) (Chinese hamster, UniProt G3I8R9 27-635, T229A | V461F, AMP covalently attached to Thr518 (Thr518-AMP); biotin on the N-terminal Avi-tag); test: as above; details: both partners purified
T2 construct: Chinese hamster BiP residues 27–635; identical to human BiP over this range; A GS linker stands between the Avi-tag and BiP residue 27; also called AMPylated BiP; BiP-AMP; source: E. coli, purified; AMPylated in vitro with GST-TEV-FICD^E234G, biotinylated in vitro with GST-BirA, made nucleotide-free, MonoQ; not shown: His6-Smt3, N-terminal, cleaved; Avi-tag (biotinylated), N-terminal, kept
T2 sequence (G3I8R9 27-635 T229A/V461F): as above

[3] = target: T3, lid-truncated BiP^T229A-V461F-AMP (residues 27–549) (Chinese hamster, UniProt G3I8R9 27-549, T229A | V461F, AMP covalently attached to Thr518 (Thr518-AMP)); test: crystal structure; heterodimer copurified by gel filtration (FICD:BiP-AMP mixed 1.5:1 with 250 µM ATP, 50 mM KCl, 2 mM MgCl2; TNKMT buffer), sitting drop vapour diffusion at 25 °C; two crystal forms (state 1, state 2); details: both partners purified
T3 construct: Chinese hamster BiP residues 27–549 (all but helix A of SBDα removed); identical to human BiP over this range; also called AMPylated BiP; BiP-AMP; source: E. coli, purified (Ni-NTA, Ulp1 cleavage, anion exchange, gel filtration); AMPylated in vitro with GST-TEV-FICD^E234G; not shown: His6-Smt3, N-terminal, cleaved
T3 sequence (G3I8R9 27-549 T229A/V461F): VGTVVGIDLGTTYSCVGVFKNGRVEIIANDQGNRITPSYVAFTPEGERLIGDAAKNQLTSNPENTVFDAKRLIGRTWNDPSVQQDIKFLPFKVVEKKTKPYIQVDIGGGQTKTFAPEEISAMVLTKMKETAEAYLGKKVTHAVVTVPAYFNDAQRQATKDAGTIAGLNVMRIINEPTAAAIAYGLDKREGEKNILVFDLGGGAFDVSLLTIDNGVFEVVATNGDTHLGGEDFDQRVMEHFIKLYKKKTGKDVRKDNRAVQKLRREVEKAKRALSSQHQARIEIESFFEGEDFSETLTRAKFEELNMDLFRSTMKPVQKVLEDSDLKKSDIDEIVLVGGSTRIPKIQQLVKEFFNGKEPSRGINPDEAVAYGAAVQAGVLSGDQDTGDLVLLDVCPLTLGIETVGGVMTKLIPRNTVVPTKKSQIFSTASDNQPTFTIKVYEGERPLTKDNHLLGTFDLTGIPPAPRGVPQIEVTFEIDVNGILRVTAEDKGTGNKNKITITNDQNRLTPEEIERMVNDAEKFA

[4] = target: the molecule itself; test: contrast variation small-angle neutron scattering (SANS); complexes of partially deuterated and non-deuterated FICD^H363A and BiP-AMP copurified by gel filtration (1.25:1 BiP-AMP:FICD, 250 µM ATP) in TNKMT(0.2) at various %D2O; 4.3–5.5 mg/ml, 12 °C
[5] = target: T4, BiP^T229A-V461F-AMP (residues 27–635), 'full-length' AMPylated BiP (Chinese hamster, UniProt G3I8R9 27-635, T229A | V461F, AMP covalently attached to Thr518 (Thr518-AMP)); test: as above; details: both partners purified
T4 construct: Chinese hamster BiP residues 27–635 (lacks the unstructured acidic N-terminal region and the C-terminal region with KDEL); identical to human BiP over this range; The deAMPylation assays used BiP^T229A-V461F (UK2521) AMPylated in vitro; also called full-length BiP-AMP; hBiP-AMP; source: E. coli, purified (Ni-NTA, Ulp1 cleavage, anion exchange, gel filtration); AMPylated in vitro with …
T4 sequence (G3I8R9 27-635 T229A/V461F): as the sequence (G3I8R9 27-635 T229A/V461F) above

[6] = target: T1, biotinylated-AviTag-haBiP^T229A-V461F …; test: BLI; biotinylated nucleotide-free BiP (BiP:Apo) immobilised on streptavidin biosensor, before ATP activation; 16 µM TPR domain for 50 s; HKMTx, 30 °C; details: both partners purified
[7] = target: T1, biotinylated-AviTag-haBiP^T229A-V461F …; test: BLI; biotinylated BiP immobilised on streptavidin biosensor, activated with 2 mM ATP (BiP:ATP); TPR domain 62.5 nM to 16 µM, 50 s association and 50 s dissociation; HKMTx, 30 °C; one-phase global fit and steady-state one site fit; details: both partners purified

Row | Binder | binding result [1] | binding result [2] | further results
1 | FICD^L258D-H363A (residues 104–445), monomeric, catalytically inactive (enzyme, human, UniProt Q9BVA6 104-445, looked up, human FICD, predicted structured regions, residues 104–445; L258D makes FICD monomeric; H363A traps the deAMPylation substrate; also called monomeric FICD^L258D-H363A; UK2093; source: E. coli, purified (Ni-NTA, on-bead Ulp1 cleavage, anion exchange, gel filtration); not shown: His6-Smt3, N-terminal, cleaved) LEARAALNQALEMKRQGKREKAQKLFMHALKMDPDFVDALTEFGIFSEEDKDIIQADYLYTRALTISPYHEKALVNRDRTLPLVEEIDQRYFSIIDSKVKKVMSIPKGNSALRRVMEETYYHHIYHTVAIEGNTLTLSEIRHILETRYAVPGKSDEEQNEVIGMHAAMKYINTTLVSRIGSVTISDVLEIHRRVLGYVDPVEAGRFRTTQVLVGHHIPPHPQDVEKQMQEFVQWLNSEEAMNLHPVEFAALAHYKLVYIAPFIDGNGRTSRLLMNLILMQAGYPPITIRKEQRSDYYHVLEAANEGDVRPFIRFIAKCTETTLDTLLFATTEYSVALPEAQP | binds | binds | binding result [3]: binds
2 | dimeric FICD^H363A(TPRox): FICD^D160C-T183C-H363A-C421S, oxidised (enzyme, human, UniProt Q9BVA6 104-445, looked up, intramolecular disulfide bond between Cys160 and Cys183, human FICD residues 104–445; also called TPRox (dimeric); source: E. coli, purified; oxidised with CuSO4 and 1,10-phenanthroline, Capto Q, RESOURCE Q, gel filtration; not shown: His6-Smt3, N-terminal, cleaved) LEARAALNQALEMKRQGKREKAQKLFMHALKMDPDFVDALTEFGIFSEEDKDIIQACYLYTRALTISPYHEKALVNRDRCLPLVEEIDQRYFSIIDSKVKKVMSIPKGNSALRRVMEETYYHHIYHTVAIEGNTLTLSEIRHILETRYAVPGKSLEEQNEVIGMHAAMKYINTTLVSRIGSVTISDVLEIHRRVLGYVDPVEAGRFRTTQVLVGHHIPPHPQDVEKQMQEFVQWLNSEEAMNLHPVEFAALAHYKLVYIAPFIDGNGRTSRLLMNLILMQAGYPPITIRKEQRSDYYHVLEAANEGDVRPFIRFIAKSTETTLDTLLFATTEYSVALPEAQP |  | binds | 
3 | dimeric FICD^H363A(TPRred): FICD^D160C-T183C-H363A-C421S, cysteines reduced (enzyme, human, UniProt Q9BVA6 104-445, looked up, human FICD residues 104–445; The cysteine-reduced form of m11; also called TPRred (dimeric); source: E. coli, purified; not shown: His6-Smt3, N-terminal, cleaved) LEARAALNQALEMKRQGKREKAQKLFMHALKMDPDFVDALTEFGIFSEEDKDIIQACYLYTRALTISPYHEKALVNRDRCLPLVEEIDQRYFSIIDSKVKKVMSIPKGNSALRRVMEETYYHHIYHTVAIEGNTLTLSEIRHILETRYAVPGKSLEEQNEVIGMHAAMKYINTTLVSRIGSVTISDVLEIHRRVLGYVDPVEAGRFRTTQVLVGHHIPPHPQDVEKQMQEFVQWLNSEEAMNLHPVEFAALAHYKLVYIAPFIDGNGRTSRLLMNLILMQAGYPPITIRKEQRSDYYHVLEAANEGDVRPFIRFIAKSTETTLDTLLFATTEYSVALPEAQP |  | binds | 
4 | isolated TPR domain of FICD (domain or fragment) LEARAALNQALEMKRQGKREKAQKLFMHALKMDPDFVDALTEFGIFSEEDKDIIQADYLYTRALTISPYH |  |  | Kd [6]: > 160000 nM; Kd [7]: 1100 nM

The next lines start with results.

Row | binding result [1] | binding result [2] | Binder | further results
5 | binds | binds | FICD^H363A (residues 104–445), dimeric, catalytically inactive (enzyme, human, UniProt Q9BVA6 104-445, looked up, human FICD, predicted structured regions, residues 104–445; also called dimeric FICD; dimeric FICD^H363A; source: E. coli, purified (Ni-NTA, on-bead Ulp1 cleavage, anion exchange, gel filtration); matchout-deuterated form from E. coli BL21 Star (DE3), purified; not shown: His6-Smt3, N-terminal, cleaved) LEARAALNQALEMKRQGKREKAQKLFMHALKMDPDFVDALTEFGIFSEEDKDIIQADYLYTRALTISPYHEKALVNRDRTLPLVEEIDQRYFSIIDSKVKKVMSIPKGNSALRRVMEETYYHHIYHTVAIEGNTLTLSEIRHILETRYAVPGKSLEEQNEVIGMHAAMKYINTTLVSRIGSVTISDVLEIHRRVLGYVDPVEAGRFRTTQVLVGHHIPPHPQDVEKQMQEFVQWLNSEEAMNLHPVEFAALAHYKLVYIAPFIDGNGRTSRLLMNLILMQAGYPPITIRKEQRSDYYHVLEAANEGDVRPFIRFIAKCTETTLDTLLFATTEYSVALPEAQP | binding result [4]: binds; binding result [5]: binds
6 | binds | binds | monomeric FICD^L258D-H363A(TPRox): FICD^D160C-T183C-L258D-H363A-C421S, oxidised (enzyme, human, UniProt Q9BVA6 104-445, looked up, intramolecular disulfide bond between Cys160 and Cys183, human FICD residues 104–445; PDB entries hold the parent m1; also called TPRox (monomeric); source: E. coli, purified; oxidised with CuSO4 and 1,10-phenanthroline, Capto Q, RESOURCE Q, gel filtration; not shown: His6-Smt3, N-terminal, cleaved) LEARAALNQALEMKRQGKREKAQKLFMHALKMDPDFVDALTEFGIFSEEDKDIIQACYLYTRALTISPYHEKALVNRDRCLPLVEEIDQRYFSIIDSKVKKVMSIPKGNSALRRVMEETYYHHIYHTVAIEGNTLTLSEIRHILETRYAVPGKSDEEQNEVIGMHAAMKYINTTLVSRIGSVTISDVLEIHRRVLGYVDPVEAGRFRTTQVLVGHHIPPHPQDVEKQMQEFVQWLNSEEAMNLHPVEFAALAHYKLVYIAPFIDGNGRTSRLLMNLILMQAGYPPITIRKEQRSDYYHVLEAANEGDVRPFIRFIAKSTETTLDTLLFATTEYSVALPEAQP | 
